This passage reports importin α pulled down (immunoblot signal, a.u.) results from publication PMC2819930.

Holding throughout (test): pull-down
Assay [1] concerns the target GST-NR1-1a (GST fused to the cytoplasmic tail of NR1-1a) (UniProt P35439).
For assay [2], the target named is PKC-phosphorylated GST-NR1-1a.
The target in assay [3] is PKA phosphorylated GST-NR1-1a.

“And” between values parts separate entries of the source, which are not always exact repeats. Equal entries are not always repeated.

Take “importin α (endogenous, rat brain) (from UniProt P83953 1-538) (natural protein)”: the importin α pulled down (immunoblot signal, a.u.) in assay [1] is 0.94 a.u. and 1.43 a.u; in assay [2], 0.378 a.u; in assay [3], 1.33 a.u.
